Key:
E47 (TCF3) = target: T1, E47 (TCF3) (Homo sapiens, UniProt P15923-2 P15923-2:1-651); assay: EMSA; 5% non-denaturing PAGE, 30 min incubation; E47 homodimer shifts the probe; details: tags: recombinant human E47; chain copies: 2 (homodimer, stated); label: 32P
T1 sequence: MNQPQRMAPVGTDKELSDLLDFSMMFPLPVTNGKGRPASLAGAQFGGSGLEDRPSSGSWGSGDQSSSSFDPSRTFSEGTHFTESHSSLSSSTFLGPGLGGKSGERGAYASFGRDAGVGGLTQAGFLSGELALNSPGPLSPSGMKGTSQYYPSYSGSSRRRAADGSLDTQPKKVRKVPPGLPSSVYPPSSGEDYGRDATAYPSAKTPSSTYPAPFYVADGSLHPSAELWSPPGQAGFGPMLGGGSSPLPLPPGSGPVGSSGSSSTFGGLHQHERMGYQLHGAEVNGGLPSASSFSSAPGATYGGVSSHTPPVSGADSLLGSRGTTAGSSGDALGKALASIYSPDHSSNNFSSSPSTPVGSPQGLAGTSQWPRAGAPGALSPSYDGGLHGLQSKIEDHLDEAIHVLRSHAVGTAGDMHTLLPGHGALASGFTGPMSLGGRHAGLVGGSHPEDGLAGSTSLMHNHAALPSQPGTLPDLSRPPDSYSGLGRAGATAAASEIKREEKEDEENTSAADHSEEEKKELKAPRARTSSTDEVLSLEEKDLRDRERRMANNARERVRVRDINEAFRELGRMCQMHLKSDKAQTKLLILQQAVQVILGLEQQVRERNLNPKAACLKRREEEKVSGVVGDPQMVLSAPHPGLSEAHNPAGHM
Protocol: (§1) Gel shift assays were performed using the 376 small molecules identified in the in silico drug screen and peptide synthesis. The identified compounds were then dissolved in 5% DMSO to a concentration of […] and reacted in binding mixtures that contained E47, Id1 and Mck. As controls, recombinant human E47 was used in a standard binding reaction that contained ³²P labeled MCK double stranded oligonucleotides containing consensus E-Box response element (MCK-5′ TTGATCCCCCCAACACCTGCTGCCTGAAGCT (SEQ ID NO. 1)) and 100 ng of Id1 was added to a standard binding reaction using E47 and p32 labeled MCK. After 30 minutes of incubation, the reaction mixtures were resolved on a 5% non-denaturing polyacrylamide gel and autoradiographed.

E47 + Id1 = target: T2, E47 + Id1 (Homo sapiens, UniProt P15923-2;P41134 P15923-2:1-651,P41134:1-155); assay: EMSA; Id1 (100 ng) added to E47 prevents E47 binding to MCK; binding restored by small-molecule Id inhibitors (100 uM, 5% DMSO); details: tags: recombinant human E47 mixed with recombinant human Id1 (100 ng); label: 32P
T2 sequence 1: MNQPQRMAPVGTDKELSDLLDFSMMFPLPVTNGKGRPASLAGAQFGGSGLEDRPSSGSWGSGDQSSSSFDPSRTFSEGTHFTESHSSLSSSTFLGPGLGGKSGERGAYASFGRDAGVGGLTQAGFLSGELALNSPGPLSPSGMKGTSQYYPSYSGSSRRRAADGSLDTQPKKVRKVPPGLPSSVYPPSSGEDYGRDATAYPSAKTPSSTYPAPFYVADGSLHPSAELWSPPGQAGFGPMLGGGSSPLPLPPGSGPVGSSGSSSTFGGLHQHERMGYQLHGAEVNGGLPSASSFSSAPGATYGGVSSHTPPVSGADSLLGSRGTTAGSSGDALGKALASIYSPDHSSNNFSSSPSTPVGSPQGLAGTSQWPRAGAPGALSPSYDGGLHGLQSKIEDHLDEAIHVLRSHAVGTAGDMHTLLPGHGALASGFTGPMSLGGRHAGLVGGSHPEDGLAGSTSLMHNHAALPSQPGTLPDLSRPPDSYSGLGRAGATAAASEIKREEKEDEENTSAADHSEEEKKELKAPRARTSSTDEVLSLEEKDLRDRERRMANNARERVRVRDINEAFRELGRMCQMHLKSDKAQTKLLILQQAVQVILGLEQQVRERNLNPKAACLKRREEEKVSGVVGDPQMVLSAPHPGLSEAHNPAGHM
T2 sequence 2: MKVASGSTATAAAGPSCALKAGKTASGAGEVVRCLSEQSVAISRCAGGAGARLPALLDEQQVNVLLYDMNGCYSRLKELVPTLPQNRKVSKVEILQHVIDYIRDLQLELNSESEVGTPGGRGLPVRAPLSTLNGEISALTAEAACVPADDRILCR
Protocol: as §1

B1: MCK E-box oligonucleotide (dsDNA)
DNA 1: TTGATCCCCCCAACACCTGCTGCCTGAAGCT
DNA 2: AGCTTCAGGCAGCAGGTGTTGGGGGGATCAA
**Q.** Does B1 bind (E47 (TCF3))?
**A.** binds

**Q.** Does B1 bind (E47 + Id1)?
**A.** no binding

From patent publication US20090226422, “Chemical Inhibitors of Inhibitors of Differentiation” (published 2009)
